# Experimental data: the nanobody polyreactivity screen of Harvey et al. (2022)
# Assay: yeast display, Sf9 membrane polyspecificity reagent, FACS + sequencing; frameworks hold sequencing errors
# How it was run: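 A nanobody's polyreactivity label depends on the gate it was sorted from. Yeast display cells were stained with 10% biotinylated, detergent-solubilized Sf9 membrane reagent for 1 hour at 4 °C, enriched on streptavidin microbeads and sorted by FACS. The low and high (top ~1%) gates were set on anti-HA fluorescence for expression and streptavidin fluorescence for reagent binding.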
row,Sequence,polyreactivity (PSR sort gate)
1,QVQLVESGGGLVQAGGSLRLSCAASGSTFTRYAMGWYRQAPGKERELVAAITRSGGGTYYADSVKGRFTSSRDNAKNTVYLQLNSLKPEDTAVYYCAKDIVFYGSPGYGYWGQGTQVTVSS,high polyreactivity
2,QVQLVESGGGLVQAGGSLRLSCAASGSTFTRYDMGGYRHAPGKERELVAAISKSGGSTYYADSVKGRFTISRDNAKNTVYLQMNSLKPEDTAVYYCARGSTKYHIYSLDYWGQGTQVTVSS,low polyreactivity
3,QVQLVESGGGLVQAGGSLRLSCAASGSTFTRYGMGWYRQAPGKERELVAAITTSGSSTYYADSVKGRFTISRDNAKNTVYLQMNSLKPEDTAVYYCAADWSSWGFDYWGQGTQVTVSS,low polyreactivity
4,QVQLVESGGGLVQAGGSLRLSCAASGSTFTSNTRWYRQAPGKERELVAAISNRGGGTYYADSVKGRFTISRDNAKNTVYLQMNSLKPEDTAVYYCNAAGYARKTAYYYWGQGTQVTVSS,high polyreactivity
5,QVQLVESGGGLVQAGGSLRLSCAASGSTFTSYAMGWYIQAPGKERELVAAIRYRGDGTYYADSVKGRFTISRDNAKNTVYLQMNSLKPEDTAVYYCAADTTLQAFIRYRPIGSYDSWGQGTQVTVSS,low polyreactivity
6,QVQLVESGGGLVQAGGSLRLSCAASGSTFTSYAMGWYRQAPGKERELVASISRSGGSTYYADSVKGRFTISRDNAKNTVYLQMNSLKPEDTAVYYCAVRSVTWHGYWGQGTQVTVSS,high polyreactivity
7,QVQLVESGGGLVQAGGSLRLSCAASGSTFTTNAMGWYRQAPGKERELVAAISWSGTTTYYADSVKGRFTISRDNAKNTVYLQMNSLKPEDTAVYYCAAQVVSGTVAYLDFGYWGQGTQVTVSS,low polyreactivity
8,QVQLVESGGGLVQAGGSLRLSCAASGSTFTTNVMGWYRQAPGKERELVAAISWSSGSTYYADSVKGRFTISRDNAKNTVYLQMNSLKPEDTAVYYCAARLVIFYPYSRYYYWGQGTQVTVSS,high polyreactivity
9,QVQLVESGGGLVQAGGSLRLSCAASGSTFTTYAMGWYRQAPGKEREFVASIRWRGGHTYYADSVKGRFTISRDNAKNTVYLQMNSLKPEDTAVYFCARRVDYISSKYGYWGQGTQVTVSS,high polyreactivity
10,QVQLVESGGGLVQAGGSLRLSCAASGSTFTVNAMGLYRQAPGKERELVAAINWSGGSTYYADSVKGRFTISRDHAKNTVYLQMNSLKPEDTAVYYCNKDREPYGYWSFDYWGQGTQVTLSS,low polyreactivity
11,QVQLVESGGGLVQAGGSLRLSCAASGSTFTVNAMGWYRQAPGKERELVAVIRKSGTSTYYADSVKGRFSISRDNAKNTVYLQMNSLKPEDTAVYYCAAGGPSTLDDYWGQGTQVTVSS,low polyreactivity
12,QVQLVESGGGLVQAGGSLRLSCAASGSTFTWYAMGWYRQAPGKERELVAAISRGGSTNYADSVKGRFTISRDNAKNTVYLQMNSLKPEDTAVYYCAAESYWRDDYWGQGTQVTVSS,low polyreactivity
13,QVQLVESGGGLVQAGGSLRLSCAASGSTFTWYAMGWYRQAPGKERELVADISYGGGSTYYADSVKGRFTISRDNAKNTVYLQMNSLKPEDTAVYYCAADYRWYQRGNPMDYWGQGTQVNVSS,low polyreactivity
14,QVQLVESGGGLVQAGGSLRLSCAASGSTFTWYAMGWYRQAPGKERELVADISYGGGSTYYADSVKGRFTISRDNAKNTVYLQMNSLKPEDTAVYYCAVDDGFAYSYDWTYRYAEYYYWGQGTQVTVSS,low polyreactivity
15,QVQLVESGGGLVQAGGSLRLSCAASGSTFTWYTMGWYRQAPGKERELVAAISSSGGSTYYADSVKGRFTISRDNAKNTVYLQMNSLKPEDTAVYYCARRFPSPLYTRYDYWGQGTQVTVSS,high polyreactivity
16,QVQLVESGGGLVQAGGSLRLSCAASGSTFTYNAMGWYRQAPGKERELVASISSGTTTYYADSVKGRFTISRDNAKNTVYLQMNCLKPEDTAVYYCAVDSWSRVQGWLAHYYDYWGQGTQVTVSS,low polyreactivity
17,QVQLVESGGGLVQAGGSLRLSCAASGSTFTYNTMGWYRQAPGKERELVAAISWGGGGTYYADSVKGRFTISRDNAKNSVYLQMNSLKRVDTAVYYCKADPWWDYGTFDYWGQGTQVTVSS,low polyreactivity
18,QVQLVESGGGLVQAGGSLRLSCAASGSTFTYNTMGWYRQAPGKERELVAGITKSGGSTYYADSVKGRFTISRDTAKNTVYLQMNSLKPEDTAVYYCATSTSRRYGSRHNYWGQGTQVTVSS,high polyreactivity
19,QVQLVESGGGLVQAGGSLRLSCAASGSTFTYYAMGWYRQAPGKEREFVATIRRSGGRTNYADSVKGRFTISRDNAKNTVYLQMNSLKPEDTAVYYCNARYTNVRGFDYWGQGTQVTVSS,high polyreactivity
20,QVQLVESGGGLVQAGGSLRLSCAASGSTFTYYAMGWYRQAPGKEREFVATITYSGGSTYYADSVKGRFTISRDNAKNTVYLQMNSLKPEDTAVYYCAARVGRPSLVAAKYDYWGQGTQVTVSS,high polyreactivity
21,QVQLVESGGGLVQAGGSLRLSCAASGSTFTYYAMGWYRQAPGKERELVAAISRRGGSTYYADSVKGRFTISRDNAKNTVYLQMNSLKPEDTAVYYCAAASHGRFYYWGQGTQVTVSS,high polyreactivity
22,QVQLVESGGGLVQAGGSLRLSCAASGSTFTYYAMGWYRQAPGKERELVAAITGGGSTNYADSVKGRFTISRDNAKNTVYLQMNSLKPEDTAVYYCAARTARYYYGWRYTGEYGYWGQGTQVTVSS,high polyreactivity

row,Sequence,polyreactivity (PSR sort gate)
1,QVQLVESGGGLVQAGGSLRLSCAASGSTFTYYAMGWYRQAPGKERELVAAITRRGGSTYYADSVKGRFTISRDNAKNTVYLQMNSLIPEDTAVYYCAKSTQIRAYIWDPYRISTYGYWGQGTQVTVSS,high polyreactivity
2,QVQLVESGGGLVQAGGSLRLSCAASGSTFTYYAMGWYRQAPGKERELVASISSTTGSTYYADSVKGRFTISRDNAKNTVYLQMNSLKPEDTAVYYCAAERVYPWYRYYYWGQGTQVTVSS,low polyreactivity
3,QVQLVESGGGLVQAGGSLRLSCAASGSTFVANAMGWYRQAPGKERELVAAISFNRGGNTYYADSVKGRFTISRDNAKNTVYLQMNSLKPEDTAVYYCAARNSYGNWRYYYWGQGTQVTVSS,high polyreactivity
4,QVQLVESGGGLVQAGGSLRLSCAASGSTFVDNDMGWYRQAPGKERELVAAAITARGGSTYYADSVKGRFTISRDNAKNTVYLQMNSLKPEDTAVYYCAAGRPGELDYWGQGTQVTVSS,low polyreactivity
5,QVQLVESGGGLVQAGGSLRLSCAASGSTFVDYAMGWYRQAPGKERELVAAINSDGGGTYYADSVKGRFTISRDNAKNTVYLQMNSLKPEDTAVYYCNVEYEDYYAQRYGYDYWGQGTQVTVSS,low polyreactivity
6,QVQLVESGGGLVQAGGSLRLSCAASGSTFVDYAMGWYRQAPGKERELVAGINGSGGSTYYADSVKGRFTISRDNAKNTVYLQMNSLKPEDTAVYYCAKDGSNRLALPAWDYNYWGQGTQVTVSS,low polyreactivity
7,QVQLVESGGGLVQAGGSLRLSCAASGSTFVFYVMVWYRQAPGKERQLVAAITGSTTSTYYAVSVKGRFTISRDNAKNTVYLQMNSLKPEDTAVYYCAAEVLRGRGFGYWGQGTQVCVSS,high polyreactivity
8,QVQLVESGGGLVQAGGSLRLSCAASGSTFVGNAMGWYRQAPVKERELVATISNSGGHTFYADSVKGRFTISRDNAKNTVYLQMNSLKPEDTAVYYCAASTSGAIRRDGYWGQGTQVTVSS,low polyreactivity
9,QVQLVESGGGLVQAGGSLRLSCAASGSTFVGYAMGWYRQAPGKERELVASITRRGGSTYYADSVKGRFTISRDNAKNTVYLQMNSLKPEDTAVYYCATPLYKTATWRAYEYWGQGTQVTVSS,high polyreactivity
10,QVQLVESGGGLVQAGGSLRLSCAASGSTFVGYAMGWYSPAPGKERELVADIDSIGGSTYYADSVKGRFTISRDYANNTVYLQINSLKPEDTAVFYCAARRFDTALVLYDYWGPGTQVTVSS,low polyreactivity
11,QVQLVESGGGLVQAGGSLRLSCAASGSTFVGYAMVWYRQAPGKERELVAAISYSGGSTYYADSVKGRFTISRDNAKNTVYLQMNSLKPEDTAVYYCAAEWSRHYYSGPRYDSWGQGSQVTVSS,low polyreactivity
12,QVQLVESGGGLVQAGGSLRLSCAASGSTFVGYTMGWYRQAPGKERELVASITSDGSTNYADSVKGRFTISRDNAKNTVYLQMNSLKREDTAVYYCNADWSSLYVGEFDYWGQGTQVTVSS,low polyreactivity
13,QVQLVESGGGLVQAGGSLRLSCAASGSTFVGYVMGWYRQAPGKERELVAAITRSGTSTYYADSVKGRFTISRDNAKNTVYLQMNSLKPEDTAVYYCARRYVSSDYYYWGQGTQVTVSS,low polyreactivity
14,QVQLVESGGGLVQAGGSLRLSCAASGSTFVHYAMGWYRQAPGKERELVAAINDGGSTHYADSVKGRFTISRDNAKNTVYLQMHSLKPEDTAVYYCAAEYVWYRYPDYWGAYDYWGQGTQVTVSS,low polyreactivity
15,QVQLVESGGGLVQAGGSLRLSCAASGSTFVKNTMGWYRQAPGKERELVAAIRSSGGSTYYADSVKGRFTISRDNAKNTVYLQMNSLKPEDTAVYYCAAGRGPEGTDDSWGQGTQVTVSS,high polyreactivity
16,QVQLVESGGGLVQAGGSLRLSCAASGSTFVKYAMGWYRQAPGKERELVAAINRSGASTYYADSVKGRFTISRDNAKNTVYLQMNSLKPEDTAVYYCAARFSWVGYYWGQGTQVTVSS,high polyreactivity
17,QVQLVESGGGLVQAGGSLRLSCAASGSTFVKYAMGWYRQAPGKERELVAAITDGGGGTFYADSVKGRFTISRDNGLNTVYLQMNSLNPEDTAVFYCNVGVSSAEDFDYWGQGTQVTVSS,low polyreactivity
18,QVQLVESGGGLVQAGGSLRLSCAASGSTFVKYVMGWYRQAPGKERELVAAISRSSVRTSYADSVKGRFTISRDNAKNTVYLQMNSLKPEDTAVYYCAAEYQYGGTTFDYWGQGTQVTVSS,high polyreactivity
19,QVQLVESGGGLVQAGGSLRLSCAASGSTFVLNAMGWYRQAPGKERELVAAINLDSGNTNYADSVKGRFTISRDNAKNTVYLQMNSLKPEDTAVYYCNTDVKFGGTAYDYWGQGTQVTVSS,low polyreactivity
20,QVQLVESGGGLVQAGGSLRLSCAASGSTFVLYAMGWDRQAPGKERELVAAISGGATTTYADSVKGRFTISRDNAKNTVYLQMNSLKPEDTAVYSCAADFSTFVVSGAAMDYWGQGTQVTVSS,low polyreactivity
21,QVQLVESGGGLVQAGGSLRLSCAASGSTFVLYAMGWYRQAPGKERELVADITWSGGSTYYADSVKGRFTISRDNAMNTVYLLMNSLKPEDTAVYYCAARYPWVYYDFDYWGQGTQVTVSS,low polyreactivity
